The chains are these.
B1: Antibody Ab1 (antibody, human IgG1, kappa, N297A, V domains shown)
VH: QSLEESGGRLVTPGTPLTLTCTVSGLDLSSYYMQWVRQAPGKGLEWIGVIGINDNTYYASWAKGRFTISRASSTTVDLKMTSLTTEDTATYFCARGDIWGPGTLVTVSS
VL: QVLTQTASPVSAAVGSTVTINCQASQSVYDNNYLAWYQQKPGQPPKQLIYSTSTLASGVSSRFKGSGSGTQFTLTISDLECADAATYYCLGSYDCSSGDCFVFGGGTEVVVKR
notes: Chimeric (rabbit variable regions, human gamma-1 and kappa constant regions), full length
B2: Antibody Ab11 (antibody, human IgG1, kappa, N297A, V domains shown)
VH: QSLEESGGRLVTPGGSLTLTCTVSGIDVTNYYMQWVRQAPGKGLEWIGVIGVNGKRYYASWAKGRFTISKTSSTTVDLKMTSLTTEDTATYFCARGDIWGPGTLVTVSS
VL: B1 VL with A12P, Q23R, D30Y, L79V, E80Q, A82D, S97N
notes: as for B1
B3: Antibody Ab4 (antibody, human IgG1, kappa, N297A, V domains shown)
VH: B1 VH with T22S, L26I, S30G, Q34N, D54G, N55A, R70K, A71T
VL: QVLTQTPSPVSAAVGSTVTINCQASQSVYHNTYLAWYQQKPGQPPKQLIYDASTLASGVPSRFSGSGSGTQFTLTISGVQCNDAAAYYCLGSYDCTNGDCFVFGGGTEVVVKR
notes: as for B1
B4: Antibody Ab9 (antibody, human IgG1, kappa, N297A, V domains shown)
VH: QSLEESGGRLVTPGTPLTLTCTVSGIGLSSYYMQWVRQSPGRGLEWIGVIGSDGKTYYATWAKGRFTISKTSSTTVDLRMASLTTEDTATYFCTRGDIWGPGTLVTVSS
VL: B1 VL with A7P, S27N, D30N, K64R, L79V, E80Q, A82D, S97R
notes: as for B1
B5: Antibody Ab7 (antibody, human IgG1, kappa, N297A, V domains shown)
VH: QEQLKESGGRLVTPGTSLTLTCTVSGIDLSNHYMQWVRQAPGKGLEWIGVVGINGRTYYASWAKGRFTISRTSSTTVDLKMTRLTTEDTATYFCARGDIWGPGTLVTVSS
VL: B1 VL with D30N, N31Y, L79V, E80Q, A82D, S97T
notes: as for B1
B6: Antibody Ab2 (antibody, human IgG1, kappa, N297A)
heavy: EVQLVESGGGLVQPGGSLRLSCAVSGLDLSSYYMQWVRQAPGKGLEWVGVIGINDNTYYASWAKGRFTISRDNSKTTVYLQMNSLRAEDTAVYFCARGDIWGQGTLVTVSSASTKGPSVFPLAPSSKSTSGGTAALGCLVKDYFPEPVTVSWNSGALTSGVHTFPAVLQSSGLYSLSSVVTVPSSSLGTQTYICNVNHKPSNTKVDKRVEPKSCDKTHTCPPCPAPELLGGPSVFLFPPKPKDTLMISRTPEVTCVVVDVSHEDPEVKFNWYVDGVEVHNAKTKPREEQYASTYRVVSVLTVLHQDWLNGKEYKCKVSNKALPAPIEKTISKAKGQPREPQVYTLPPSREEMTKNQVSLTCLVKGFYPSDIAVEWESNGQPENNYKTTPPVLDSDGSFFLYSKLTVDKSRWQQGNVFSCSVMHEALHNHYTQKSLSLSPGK
light: QVLTQSPSSLSASVGDRVTINCQASQSVYDNNYLAWYQQKPGKVPKQLIYSTSTLASGVPSRFSGSGSGTDFTLTISSLQPEDVATYYCLGSYDCSSGDCFVFGGGTKVEIKRTVAAPSVFIFPPSDEQLKSGTASVVCLLNNFYPREAKVQWKVDNALQSGNSQESVTEQDSKDSTYSLSSTLTLSKADYEKHKVYACEVTHQGLSSPVTKSFNRGEC
notes: Humanized, full length, human gamma-1 and kappa constant regions
B7: Antibody Ab14 (antibody, human IgG1, kappa, N297A)
heavy: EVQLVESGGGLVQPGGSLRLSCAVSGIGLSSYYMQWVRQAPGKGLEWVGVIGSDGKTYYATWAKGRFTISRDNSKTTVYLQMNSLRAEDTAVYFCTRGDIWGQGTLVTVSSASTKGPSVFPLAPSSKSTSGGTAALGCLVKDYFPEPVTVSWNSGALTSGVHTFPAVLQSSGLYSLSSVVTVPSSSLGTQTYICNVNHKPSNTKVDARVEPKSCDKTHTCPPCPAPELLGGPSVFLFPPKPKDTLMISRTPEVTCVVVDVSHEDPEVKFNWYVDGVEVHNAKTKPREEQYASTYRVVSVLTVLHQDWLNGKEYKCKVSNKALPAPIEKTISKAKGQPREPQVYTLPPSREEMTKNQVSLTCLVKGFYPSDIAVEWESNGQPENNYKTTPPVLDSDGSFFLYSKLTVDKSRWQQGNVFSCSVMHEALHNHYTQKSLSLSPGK
light: B6 light with S27N, D30N, S97R
notes: Humanized, full length; same variable regions as Ab10, heavy constant region differs (KVDARV instead of KVDKRV)
B8: Antibody Ab12 (antibody, human IgG1, kappa, N297A, V domains shown)
VH: EVQLVESGGGLVQPGGSLRLSCAVSGIDVTNYYMQWVRQAPGKGLEWVGVIGVNGKRYYASWAKGRFTISRDNSKTTVYLQMNSLRAEDTAVYFCARGDIWGQGTLVTVSS
VL: QVLTQSPSSLSASVGDRVTINCRASQSVYYNNYLAWYQQKPGKVPKQLIYSTSTLASGVPSRFSGSGSGTDFTLTISSLQPEDVATYYCLGSYDCSNGDCFVFGGGTKVEIKR
notes: as for B6
B9: Antibody Ab5 (antibody, human IgG1, kappa, N297A)
heavy: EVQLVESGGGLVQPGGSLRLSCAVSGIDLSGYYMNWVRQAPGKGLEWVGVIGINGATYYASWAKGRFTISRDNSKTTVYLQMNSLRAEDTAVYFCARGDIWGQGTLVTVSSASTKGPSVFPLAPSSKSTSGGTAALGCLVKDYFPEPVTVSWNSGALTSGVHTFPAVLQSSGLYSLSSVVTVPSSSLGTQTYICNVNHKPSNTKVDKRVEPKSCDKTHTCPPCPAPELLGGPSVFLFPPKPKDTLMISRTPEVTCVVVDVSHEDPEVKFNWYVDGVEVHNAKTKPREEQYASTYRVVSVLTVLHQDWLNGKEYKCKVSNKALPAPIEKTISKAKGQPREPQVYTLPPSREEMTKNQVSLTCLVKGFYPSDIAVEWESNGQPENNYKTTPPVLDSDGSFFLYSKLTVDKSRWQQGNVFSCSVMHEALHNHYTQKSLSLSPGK
light: B6 light with D30H, N32T, S51D, T52A, S96T, S97N
notes: as for B6
B10: Antibody Ab10 (antibody, human IgG1, kappa, N297A)
heavy: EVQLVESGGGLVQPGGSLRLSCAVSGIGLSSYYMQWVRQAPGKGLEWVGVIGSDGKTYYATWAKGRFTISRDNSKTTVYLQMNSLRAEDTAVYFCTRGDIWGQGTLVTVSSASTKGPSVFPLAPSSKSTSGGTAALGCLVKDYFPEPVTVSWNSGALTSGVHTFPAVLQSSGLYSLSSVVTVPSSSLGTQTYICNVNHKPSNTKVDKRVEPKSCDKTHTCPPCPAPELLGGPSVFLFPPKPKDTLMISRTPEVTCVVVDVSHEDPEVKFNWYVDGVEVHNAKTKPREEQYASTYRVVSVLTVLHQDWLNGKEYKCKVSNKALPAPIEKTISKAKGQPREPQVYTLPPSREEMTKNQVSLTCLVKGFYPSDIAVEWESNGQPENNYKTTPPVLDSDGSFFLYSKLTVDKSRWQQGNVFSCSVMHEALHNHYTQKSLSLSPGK
light: B6 light with S27N, D30N, S97R
notes: as for B6
B11: Antibody Ab3 (antibody, human IgG1, kappa, N297A)
heavy: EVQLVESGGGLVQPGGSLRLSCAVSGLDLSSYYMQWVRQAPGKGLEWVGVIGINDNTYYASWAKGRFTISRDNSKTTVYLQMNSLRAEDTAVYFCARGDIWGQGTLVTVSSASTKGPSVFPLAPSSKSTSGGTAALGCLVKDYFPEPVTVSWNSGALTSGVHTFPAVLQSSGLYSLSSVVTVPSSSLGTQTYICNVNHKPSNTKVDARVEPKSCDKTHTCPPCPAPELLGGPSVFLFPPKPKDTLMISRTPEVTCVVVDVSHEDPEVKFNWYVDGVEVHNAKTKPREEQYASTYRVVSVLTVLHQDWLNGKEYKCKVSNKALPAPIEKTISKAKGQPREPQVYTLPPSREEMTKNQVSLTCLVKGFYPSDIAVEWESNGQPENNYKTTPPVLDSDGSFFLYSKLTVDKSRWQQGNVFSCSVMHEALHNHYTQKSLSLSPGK
light: B6 light
notes: Humanized, full length; same variable regions as Ab2, heavy constant region differs (KVDARV instead of KVDKRV)
B12: Antibody Ab8 (antibody, human IgG1, kappa, N297A, V domains shown)
VH: B8 VH with V29L, T30S, Y32H, I51V, V53I, K56R, R57T
VL: B8 VL with R23Q, Y30N, N31Y, N97T
notes: as for B6
B13: Antibody Ab6 (antibody, human IgG1, kappa, N297A)
heavy: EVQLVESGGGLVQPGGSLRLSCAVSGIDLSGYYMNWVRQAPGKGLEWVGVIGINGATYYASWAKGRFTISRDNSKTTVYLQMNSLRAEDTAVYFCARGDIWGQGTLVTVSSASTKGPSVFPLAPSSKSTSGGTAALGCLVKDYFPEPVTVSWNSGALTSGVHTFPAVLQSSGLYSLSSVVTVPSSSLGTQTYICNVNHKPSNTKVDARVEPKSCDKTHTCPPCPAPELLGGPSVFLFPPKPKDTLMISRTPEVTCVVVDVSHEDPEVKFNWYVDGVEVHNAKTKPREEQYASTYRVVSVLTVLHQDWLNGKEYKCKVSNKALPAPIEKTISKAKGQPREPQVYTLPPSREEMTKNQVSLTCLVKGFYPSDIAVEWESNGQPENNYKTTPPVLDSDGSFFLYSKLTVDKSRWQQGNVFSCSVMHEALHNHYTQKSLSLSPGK
light: B6 light with D30H, N32T, S51D, T52A, S96T, S97N
notes: Humanized, full length; same variable regions as Ab5, heavy constant region differs (KVDARV instead of KVDKRV)

Residue numbers refer to the chain shown, from its start.

The assay concerns the target T1, Homo sapiens CGRP-alpha (Calcitonin Gene Related Peptide alpha) (Homo sapiens, C-terminal -NH2 as printed in the sequence (the text says "the N-terminal phenylalanine is amidated")).
T1 construct: Synthetic 37-residue peptide from American Peptides / Bachem; Coated directly on the plate in the recombinant-antibody ELISA; also called human CGRPα; CGRPα
T1 peptide: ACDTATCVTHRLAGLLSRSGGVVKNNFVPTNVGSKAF
Description: ELISA: CGRPα coated on plate, antibody dilution series, anti-human IgG Fc-peroxidase detection. Here is the method: To characterize recombinant expressed antibodies for their ability to bind to human-CGRPα, antibody-containing solutions were tested by ELISA. All incubations were done at room temperature. Briefly, Immulon IV plagtes (Thermo Scientific) were coated with a CGRPα containing solution ([…] in PBS) for 2 hours. CGRPα-coated plates were then washed three times in wash buffer (PBS, 0.05% Tween-20). The plates were then blocked using a blocking solution (PBS, 0.5% fish skin gelatin, 0.05% Tween-20) for approximately one hour. The blocking solution was then removed and the plates were then incubated with a dilution series of the antibody being tested for approximately one hour. At the end of this incubation, the plate was washed three times with wash buffer and further incubated with a secondary antibody containing solution (Peroxidase conjugated affinipure F(ab′)2 fragment goat anti-human IgG, Fc fragment specific (Jackson Immunoresearch) for approximately 45 minutes and washed three times. At that point a substrate solution (TMB peroxidase substrate, BioFx) and incubated for 3 to 5 minutes in the dark. The reaction was stopped by addition of a HCl containing solution (0.5M) and the plate was read at 450 nm in a plate-reader.
Turning to B1, the binding result is on record as “binds”. For B2 the value was “binds”. Next, B3: “binds”. Regarding B4, the binding result is “binds”. As to B5, the binding result is reported as “binds”. For B6 the value was “binds”; for B7, “binds”. For B8, the binding result is reported as “binds”. Regarding B9, the binding result is “binds”. Turning to B10, the binding result is listed as “binds”. For B11 the value was “binds”; for B12, “binds”; for B13, “binds”.

The values are drawn from US20120294797A1 (ALDERBIO, published 2012).
